For experiment [1], the target named is T1, human GIP receptor (human, UniProt P48546 22-466).
T1 sequence (looked up): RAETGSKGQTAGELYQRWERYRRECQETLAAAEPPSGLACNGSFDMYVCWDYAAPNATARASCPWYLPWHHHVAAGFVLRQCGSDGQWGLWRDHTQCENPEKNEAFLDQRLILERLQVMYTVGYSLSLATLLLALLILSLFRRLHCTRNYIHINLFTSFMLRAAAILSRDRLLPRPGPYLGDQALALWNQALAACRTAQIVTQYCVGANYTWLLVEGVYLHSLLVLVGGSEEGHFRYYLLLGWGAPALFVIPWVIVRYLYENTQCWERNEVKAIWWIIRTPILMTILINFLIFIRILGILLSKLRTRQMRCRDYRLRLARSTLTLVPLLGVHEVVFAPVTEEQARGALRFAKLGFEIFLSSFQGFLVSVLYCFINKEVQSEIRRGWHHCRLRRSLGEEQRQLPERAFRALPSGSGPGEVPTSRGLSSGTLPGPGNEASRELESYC
Nature of the experiment: cell-based or functional assay.

Experiment [2] deals with human GLP-1 receptor (human, UniProt P43220 24-463). Nature of the experiment: cell-based or functional assay.

*1 amine or outer side, *2 acyl side, *3 side chain or, on linkers, in order; H or OH if unused. Where no end group is shown, it is not given here. Side-chain parts run from the residue outwards. [ ]: non-standard residue; d: D form. The star is where a group is joined. C16 diacid = O=C(O)CCCCCCCCCCCCCCC(=O)*; γGlu = O=C(O)[C@H](CCC(=O)[*:2])N[*:1]; AEEA = NCCOCCOCC(=O)O; Aib = CC(C)(N)C(=O)O

The results in this text go back to US20240083965A1 (Novo Nordisk, published 2024).

In experiment [1], “human GIP (from UniProt P09681 52-93) (ligand)” displayed a hGIPR, CRE Luc 0% HSA EC50 (pM) of 11.3 pM and a hGIPR, CRE Luc 1% HSA EC50 (pM) of 6.4 pM.
For the molecule Y[Aib]EGTFTSDYSILLEKQAAREFIEWLLAGGPSSGAPPPS-OH (not fully specified (residue 16)) [Parent compound No. 4], in experiment [1], the “hGIPR, CRE Luc 0% HSA EC50 (pM)” value came to 4.7 pM and the “hGIPR, CRE Luc 1% HSA EC50 (pM)” value was 188 pM. Besides, in experiment [2], the “hGLP-1R, CRE Luc 0% HSA EC50 (pM)” value was 4.2 pM and the “hGLP-1R, CRE Luc 1% HSA EC50 (pM)” value was determined as 202 pM.

B1: Parent compound No. 1 (peptide)
peptide: Y[Aib]EGTFTSDYSILLEEQAAREFIEWLLAGGPSK([AEEA-AEEA-γGlu-C16 diacid])GAPPPS-OH
modifications: N-terminus assumed
SMILES: CC[C@H](C)[C@H](NC(=O)[C@H](Cc1ccccc1)NC(=O)[C@H](CCC(=O)O)NC(=O)[C@H](CCCNC(=N)N)NC(=O)[C@H](C)NC(=O)[C@H](C)NC(=O)[C@H](CCC(N)=O)NC(=O)[C@H](CCC(=O)O)NC(=O)[C@H](CCC(=O)O)NC(=O)[C@H](CC(C)C)NC(=O)[C@H](CC(C)C)NC(=O)[C@@H](NC(=O)[C@H](CO)NC(=O)[C@H](Cc1ccc(O)cc1)NC(=O)[C@H](CC(=O)O)NC(=O)[C@H](CO)NC(=O)[C@@H](NC(=O)[C@H](Cc1ccccc1)NC(=O)[C@@H](NC(=O)CNC(=O)[C@H](CCC(=O)O)NC(=O)C(C)(C)NC(=O)[C@@H](N)Cc1ccc(O)cc1)[C@@H](C)O)[C@@H](C)O)[C@@H](C)CC)C(=O)N[C@@H](CCC(=O)O)C(=O)N[C@@H](Cc1c[nH]c2ccccc12)C(=O)N[C@@H](CC(C)C)C(=O)N[C@@H](CC(C)C)C(=O)N[C@@H](C)C(=O)NCC(=O)NCC(=O)N1CCC[C@H]1C(=O)N[C@@H](CO)C(=O)N[C@@H](CCCCNC(=O)COCCOCCNC(=O)COCCOCCNC(=O)CC[C@H](NC(=O)CCCCCCCCCCCCCCC(=O)O)C(=O)O)C(=O)NCC(=O)N[C@@H](C)C(=O)N1CCC[C@H]1C(=O)N1CCC[C@H]1C(=O)N1CCC[C@H]1C(=O)N[C@@H](CO)C(=O)O
As to B1, in experiment [1], the “hGIPR, CRE Luc 0% HSA EC50 (pM)” value amounted to 3.1 pM and the “hGIPR, CRE Luc 1% HSA EC50 (pM)” value came out at 156 pM. Further, in experiment [2], the “hGLP-1R, CRE Luc 0% HSA EC50 (pM)” value worked out at 2.1 pM and the “hGLP-1R, CRE Luc 1% HSA EC50 (pM)” value turned out to be 154 pM.
Y[Aib]EGTFTSDYSILLEEQAAREFIEWLLAGGPSKGAPPPS-OH (not fully specified (residue 33)) [Parent compound No. 3]: in experiment [1], the “hGIPR, CRE Luc 0% HSA EC50 (pM)” value came out at 5.6 pM and the “hGIPR, CRE Luc 1% HSA EC50 (pM)” value was determined as 444 pM. In experiment [2], the “hGLP-1R, CRE Luc 0% HSA EC50 (pM)” value stood at 4 pM and the “hGLP-1R, CRE Luc 1% HSA EC50 (pM)” value worked out at 360 pM.
Y[Aib]EGTFTSDYSILLEEQAAREFIEWLLAGGPSKGAPPPS-OH (not fully specified (residue 33)) [Parent compound No. 2]: in experiment [1], the “hGIPR, CRE Luc 0% HSA EC50 (pM)” value amounted to 1.8 pM and the “hGIPR, CRE Luc 1% HSA EC50 (pM)” value is 97 pM. Also, in experiment [2], the “hGLP-1R, CRE Luc 0% HSA EC50 (pM)” value was 1.5 pM and the “hGLP-1R, CRE Luc 1% HSA EC50 (pM)” value stood at 111 pM.
